{"source": "patent US20140056895", "about": "(published 2014)", "binders": {"B1": {"name": "CODV-Ig LC4:HC4, IL4 arm (antibody, V domains shown)", "VH": "QVQLQQSGPELVKPGASVKISCKASGYSFTSYWIHWIKQRPGQGLEWIGMIDPSDGETRLNQRFQGRATLTVDESTSTAYMQLRSPTSEDSAVYYCTRLKEYGNYDSFYFDVWGAGTLVTVSS", "VL": "DIQMTQSPASLSVSVGDTITLTCHASQNIDVWLSWFQQKPGNIPKLLIYKASNLHTGVPSRFSGSGSGTGFTLTISSLQPEDIATYYCQQAHSYPFTFGGGTKLEIKR"}, "B2": {"name": "CODV-Fab 421, IL4 arm (antibody, V domains shown)", "VH": "B1 VH", "VL": "B1 VL"}, "B3": {"name": "CODV-Ig Fc cysteine variants (602, 603), IL4 arm (antibody, V domains shown)", "VH": "B1 VH", "VL": "B1 VL"}, "B4": {"name": "parental anti-IL4 mAb (8D4 humanized) (antibody, V domains shown)", "VH": "B1 VH", "VL": "B1 VL"}, "B5": {"name": "CODV-Ig heavy-chain template (batches 201-270, 501-508, 704, 801), IL4 arm (antibody, V domains shown)", "VH": "B1 VH", "VL": "B1 VL"}, "B6": {"name": "CODV-Ig LC4:HC6, IL4 arm (antibody, V domains shown)", "VH": "B1 VH", "VL": "B1 VL"}, "B7": {"name": "CODV 706, IL4 arm (antibody, V domains shown)", "VH": "B1 VH with G44C", "VL": "B1 VL with G100C"}, "B8": {"name": "CODV-Ig heavy-chain template (batches 201-270, 501-508, 704, 801), IL13 arm (antibody, V domains shown)", "VH": "EVQLKESGPGLVAPGGSLSITCTVSGFSLTDSSINWVRQPPGKGLEWLGMIWGDGRIDYADALKSRLSISKDSSKSQVFLEMTSLRTDDTATYYCARDGYFPYAMDFWGQGTSVTVSS", "VL": "DIVLTQSPASLAVSLGQRATISCRASESVDSYGQSYMHWYQQKAGQPPKLLIYLASNLESGVPARFSGSGSRTDFTLTIDPVQAEDAATYYCQQNAEDSRTFGGGTKLEIK"}, "B9": {"name": "CODV-Ig LC4:HC6, IL13 arm (antibody, V domains shown)", "VH": "B8 VH", "VL": "B8 VL"}, "B10": {"name": "CODV-Ig Fc cysteine variants (602, 603), IL13 arm (antibody, V domains shown)", "VH": "B8 VH", "VL": "B8 VL"}, "B11": {"name": "CODV-Fab 421, IL13 arm (antibody, V domains shown)", "VH": "B8 VH", "VL": "B8 VL"}, "B12": {"name": "CODV-Ig LC4:HC4, IL13 arm (antibody, V domains shown)", "VH": "B8 VH", "VL": "B8 VL"}, "B13": {"name": "parental anti-IL13 mAb (B-B13 humanized) (antibody, V domains shown)", "VH": "B8 VH", "VL": "B8 VL"}, "B14": {"name": "Cross-over IL4(G4S)IL13CH1-Fc / IL13(G4S)IL4CL (antibody)", "chain 1": "not shown", "chain 2": "DIVLTQSPASLAVSLGQRATISCRASESVDSYGQSYMHWYQQKAGQPPKLLIYLASNLESGVPARFSGSGSRTDFTLTIDPVQAEDAATYYCQQNAEDSRTFGGGTKLEIKGGGGSDIQMTQSPASLSVSVGDTITLTCHASQNIDVWLSWFQQKPGNIPKLLIYKASNLHTGVPSRFSGSGSGTGFTLTISSLQPEDIATYYCQQAHSYPFTFGGGTKLEIKRTVAAPSVFIFPPSDEQLKSGTASVVCLLNNFYPREAKVQWKVDNALQSGNSQESVTEQDSKDSTYSLSSTLTLSKADYEKHKVYACEVTHQGLSSPVTKSFNRGEC"}, "B15": {"name": "Cross-over IL4(G4S2)IL13CH1-Fc / IL13(G4S)IL4CL (antibody)", "chain 1": "not shown", "chain 2": "B14 chain 2"}, "B16": {"name": "CODV-Fab 413, EGFR arm (antibody)", "chain 1": "not shown", "chain 2": "EIVLTQSPGTLSVSPGERATLSCRASQSIGSSLHWYQQKPGQAPRLLIKYASQSLSGIPDRFSGSGSGTDFTLTISRLEPEDFAVYYCHQSSRLPHTFGQGTKVEIKGGGGGGGEIVMTQSPATLSLSPGERATLSCRASQSVSSYLAWYQQKPGQAPRLLIYDASNRATGIPARFSGSGSGTDFTLTISSLEPEDFAVYYCHQYGSTPLTFGGGTKAEIKGGGGGRTVAAPSVFIFPPSDEQLKSGTASVVCLLNNFYPREAKVQWKVDNALQSGNSQESVTEQDSKDSTYSLSSTLTLSKADYEKHKVYACEVTHQGLSSPVTKSFNRGEC"}, "B17": {"name": "CODV-Ig 411 HC13/LC13, EGFR arm (antibody)", "chain 1": "not shown", "chain 2": "B16 chain 2"}, "B18": {"name": "Cross-over IL4(G4S2)IL13CH1-Fc / IL13(G4S2)IL4CL (antibody)", "chain 1": "not shown", "chain 2": "DIVLTQSPASLAVSLGQRATISCRASESVDSYGQSYMHWYQQKAGQPPKLLIYLASNLESGVPARFSGSGSRTDFTLTIDPVQAEDAATYYCQQNAEDSRTFGGGTKLEIKGGGGSGGGGSDIQMTQSPASLSVSVGDTITLTCHASQNIDVWLSWFQQKPGNIPKLLIYKASNLHTGVPSRFSGSGSGTGFTLTISSLQPEDIATYYCQQAHSYPFTFGGGTKLEIKRTVAAPSVFIFPPSDEQLKSGTASVVCLLNNFYPREAKVQWKVDNALQSGNSQESVTEQDSKDSTYSLSSTLTLSKADYEKHKVYACEVTHQGLSSPVTKSFNRGEC"}, "B19": {"name": "Cross-over IL4(G4S)IL13CH1-Fc / IL13(G4S2)IL4CL (antibody)", "chain 1": "not shown", "chain 2": "B18 chain 2"}}, "key": {"IL4 [1]": {"molecular_target": "T1, IL4 (human, UniProt P05112)", "T1 chain": "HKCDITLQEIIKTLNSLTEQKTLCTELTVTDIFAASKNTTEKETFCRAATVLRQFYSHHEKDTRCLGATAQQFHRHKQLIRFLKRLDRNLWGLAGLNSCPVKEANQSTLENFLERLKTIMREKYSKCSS", "assay": "SPR"}, "IL4 [2]": {"molecular_target": "T1, IL4", "assay": "SPR"}, "IL4 [3]": {"molecular_target": "T1, IL4", "assay": "SPR"}, "IL4 [4]": {"molecular_target": "T1, IL4", "assay": "SPR"}, "IL4 [5]": {"molecular_target": "T1, IL4", "assay": "SPR"}, "IL13 [6]": {"molecular_target": "T2, IL13 (human, UniProt P35225)", "T2 sequence (P35225 35-146)": "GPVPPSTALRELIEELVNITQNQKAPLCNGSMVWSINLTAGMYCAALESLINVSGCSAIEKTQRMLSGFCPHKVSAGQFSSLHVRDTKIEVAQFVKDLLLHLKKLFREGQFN", "assay": "SPR"}, "IL13 [7]": {"molecular_target": "T2, IL13", "assay": "SPR", "remark": "listed apart in the source"}, "IL13 [8]": {"molecular_target": "T2, IL13", "assay": "SPR", "remark": "listed apart in the source"}, "IL13 [9]": {"molecular_target": "T2, IL13", "assay": "SPR", "remark": "listed apart in the source"}, "IL13 [10]": {"molecular_target": "T2, IL13", "assay": "SPR", "remark": "listed apart in the source"}, "IL13 [11]": {"molecular_target": "T2, IL13"}, "EGFR": {"molecular_target": "EGFR (human, UniProt P00533)", "assay": "SPR"}, "IL4 [12]": {"molecular_target": "T1, IL4"}}, "note": "Where a chain is given by its changes, count along the chain named. Names may count otherwise. “And” between values parts separate entries of the source, which are not always exact repeats. Equal entries are not always repeated. Where two headings read alike, the source gives them in different places."}
{"binder": "B1", "values": [{"measurement": "Kd", "setting": "IL4 [1]", "value": 0.00914, "unit": "nM"}]}
{"binder": "B2", "values": [{"measurement": "Kd", "setting": "IL4 [2]", "value": 0.012, "unit": "nM"}]}
{"binder": "B3", "values": [{"measurement": "Kd", "setting": "IL4 [3]", "value": "0.004 nM and 0.01 nM"}]}
{"binder": "B4", "values": [{"measurement": "Kd", "setting": "IL4 [1]", "value": 0.00783, "unit": "nM"}]}
{"binder": "B5", "values": [{"measurement": "Kd", "setting": "IL4 [4]", "value": 0.003, "unit": "nM"}, {"measurement": "Kd", "setting": "IL4 [5]", "value": 0.003, "unit": "nM"}]}
{"binder": "B6", "values": [{"measurement": "Kd", "setting": "IL4 [1]", "value": 0.0111, "unit": "nM"}]}
{"binder": "B7", "values": [{"measurement": "Kd", "setting": "IL4 [4]", "value": 0.008, "unit": "nM"}]}
{"binder": "B8", "values": [{"measurement": "Kd", "setting": "IL13 [6]", "value": 0.025, "unit": "nM"}, {"measurement": "Kd", "setting": "IL13 [7]", "value": 0.025, "unit": "nM"}]}
{"binder": "B9", "values": [{"measurement": "Kd", "setting": "IL13 [8]", "value": 0.118, "unit": "nM"}]}
{"binder": "B10", "values": [{"measurement": "Kd", "setting": "IL13 [9]", "value": "0.064 nM and 0.1 nM"}]}
{"binder": "B11", "values": [{"measurement": "Kd", "setting": "IL13 [10]", "value": 0.048, "unit": "nM"}]}
{"binder": "B12", "values": [{"measurement": "Kd", "setting": "IL13 [8]", "value": 0.0934, "unit": "nM"}]}
{"binder": "B13", "values": [{"measurement": "Kd", "setting": "IL13 [8]", "value": 0.0818, "unit": "nM"}]}
{"binder": "B14", "values": [{"measurement": "binding result", "setting": "IL13 [11]", "value": "no binding"}]}
{"binder": "B15", "values": [{"measurement": "binding result", "setting": "IL13 [11]", "value": "no binding"}]}
{"binder": "B16", "values": [{"measurement": "Kd", "setting": "EGFR", "value": 42, "unit": "nM"}]}
{"binder": "B17", "values": [{"measurement": "Kd", "setting": "EGFR", "value": 124, "unit": "nM"}]}
{"binder": "B18", "values": [{"measurement": "binding result", "setting": "IL4 [12]", "value": "no binding"}, {"measurement": "binding result", "setting": "IL13 [11]", "value": "no binding"}]}
{"binder": "B19", "values": [{"measurement": "binding result", "setting": "IL13 [11]", "value": "no binding"}]}
